From PMC8219681, “Inhibition of MRN activity by a telomere protein motif” (Nature Communications, 2021)

T1: Rad50S (S. cerevisiae Rad50-K81I, FLAG-tagged at the C terminus) (S. cerevisiae, UniProt P12753 1-1312, K81I)
T1 construct: Rad50, Saccharomyces cerevisiae, K81I
T1 sequence (looked up): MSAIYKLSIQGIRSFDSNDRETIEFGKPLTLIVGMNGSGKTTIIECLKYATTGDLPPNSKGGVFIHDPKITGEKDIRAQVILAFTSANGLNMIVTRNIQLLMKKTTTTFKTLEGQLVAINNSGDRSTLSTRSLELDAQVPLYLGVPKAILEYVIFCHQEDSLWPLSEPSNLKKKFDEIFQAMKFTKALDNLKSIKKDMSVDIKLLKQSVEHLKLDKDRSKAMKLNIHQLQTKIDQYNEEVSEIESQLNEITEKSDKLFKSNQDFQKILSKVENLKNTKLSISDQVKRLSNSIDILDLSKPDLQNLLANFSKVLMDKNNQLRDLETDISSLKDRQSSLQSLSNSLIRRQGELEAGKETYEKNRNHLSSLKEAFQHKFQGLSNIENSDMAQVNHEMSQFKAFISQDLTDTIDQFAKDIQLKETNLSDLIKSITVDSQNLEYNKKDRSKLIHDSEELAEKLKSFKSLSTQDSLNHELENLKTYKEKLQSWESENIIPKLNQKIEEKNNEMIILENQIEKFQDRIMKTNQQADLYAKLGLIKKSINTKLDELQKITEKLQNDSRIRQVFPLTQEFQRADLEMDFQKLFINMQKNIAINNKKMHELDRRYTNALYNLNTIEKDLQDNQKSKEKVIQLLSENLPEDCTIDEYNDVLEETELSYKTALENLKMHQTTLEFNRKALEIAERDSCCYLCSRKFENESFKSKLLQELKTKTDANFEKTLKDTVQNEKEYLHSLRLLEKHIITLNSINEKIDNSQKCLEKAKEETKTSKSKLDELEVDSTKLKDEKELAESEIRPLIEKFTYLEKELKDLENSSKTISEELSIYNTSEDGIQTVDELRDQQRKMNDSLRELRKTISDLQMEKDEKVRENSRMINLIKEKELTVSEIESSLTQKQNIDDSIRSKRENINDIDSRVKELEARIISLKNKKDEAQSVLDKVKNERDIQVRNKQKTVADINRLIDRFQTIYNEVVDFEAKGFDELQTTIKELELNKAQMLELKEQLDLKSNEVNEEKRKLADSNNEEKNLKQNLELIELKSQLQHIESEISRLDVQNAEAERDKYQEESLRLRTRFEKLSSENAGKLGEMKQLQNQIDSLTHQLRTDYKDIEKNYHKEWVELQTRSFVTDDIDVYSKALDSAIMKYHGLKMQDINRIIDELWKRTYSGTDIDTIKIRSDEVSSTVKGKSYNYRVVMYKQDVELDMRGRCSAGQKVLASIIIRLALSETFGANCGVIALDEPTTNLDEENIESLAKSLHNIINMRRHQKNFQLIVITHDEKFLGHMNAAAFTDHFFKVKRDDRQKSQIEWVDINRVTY

T2: Rad50 (S. cerevisiae, FLAG-tagged at the C terminus) (S. cerevisiae, UniProt P12753 1-1312)
T2 construct: Rad50, Saccharomyces cerevisiae
T2 sequence (looked up): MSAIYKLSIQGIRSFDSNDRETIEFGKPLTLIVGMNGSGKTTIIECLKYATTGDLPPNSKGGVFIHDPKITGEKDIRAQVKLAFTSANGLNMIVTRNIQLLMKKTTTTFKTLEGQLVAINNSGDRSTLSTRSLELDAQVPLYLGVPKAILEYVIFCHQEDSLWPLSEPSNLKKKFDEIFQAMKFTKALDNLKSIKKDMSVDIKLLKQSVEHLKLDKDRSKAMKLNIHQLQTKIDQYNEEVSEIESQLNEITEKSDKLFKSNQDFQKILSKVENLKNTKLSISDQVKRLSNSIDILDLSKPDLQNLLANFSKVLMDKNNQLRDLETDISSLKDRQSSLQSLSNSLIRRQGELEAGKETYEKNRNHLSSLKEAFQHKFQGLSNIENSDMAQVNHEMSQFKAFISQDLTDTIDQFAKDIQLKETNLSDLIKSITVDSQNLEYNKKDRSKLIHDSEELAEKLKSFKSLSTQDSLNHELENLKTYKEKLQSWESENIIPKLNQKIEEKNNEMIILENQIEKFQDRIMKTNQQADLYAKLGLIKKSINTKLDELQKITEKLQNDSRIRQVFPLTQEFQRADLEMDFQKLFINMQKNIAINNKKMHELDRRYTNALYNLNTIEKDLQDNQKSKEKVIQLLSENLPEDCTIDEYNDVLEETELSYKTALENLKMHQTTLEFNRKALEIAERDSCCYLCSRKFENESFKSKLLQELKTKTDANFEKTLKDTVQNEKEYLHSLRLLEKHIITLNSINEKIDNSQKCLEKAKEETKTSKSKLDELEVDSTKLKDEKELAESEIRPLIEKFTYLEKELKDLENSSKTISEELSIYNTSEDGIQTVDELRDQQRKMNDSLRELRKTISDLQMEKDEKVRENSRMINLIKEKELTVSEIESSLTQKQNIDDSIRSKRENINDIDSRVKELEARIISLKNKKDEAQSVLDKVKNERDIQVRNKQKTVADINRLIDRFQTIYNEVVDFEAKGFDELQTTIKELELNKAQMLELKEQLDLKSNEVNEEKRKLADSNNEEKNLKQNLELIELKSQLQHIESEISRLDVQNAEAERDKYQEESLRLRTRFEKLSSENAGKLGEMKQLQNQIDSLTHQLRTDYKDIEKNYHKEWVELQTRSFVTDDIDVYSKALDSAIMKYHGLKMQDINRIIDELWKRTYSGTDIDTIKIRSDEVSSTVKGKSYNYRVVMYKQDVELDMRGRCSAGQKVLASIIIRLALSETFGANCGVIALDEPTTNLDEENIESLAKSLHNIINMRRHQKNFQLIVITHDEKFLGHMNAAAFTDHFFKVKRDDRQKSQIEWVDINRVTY


How the values were obtained:
[1] = target: T1, Rad50S (S. cerevisiae Rad50-K81I, …); assay: pull-down; MBP-Rif2 or MBP-Rif2-min immobilised on amylose resin, washed with 1 M NaCl buffer then 150 mM NaCl; 750 ng Rad50 or Rad50-K81I added for 1 h at 4 °C in wash buffer with 150 mM NaCl; Western blot with anti-Rad50; settings: both partners purified
[2] = target: T2, Rad50 (S. cerevisiae, FLAG-tagged at …); assay: pull-down; MBP-Rif2 or MBP-Rif2-min (~5 ug, from Sf9 lysate) immobilised on amylose resin and washed; 1 ug Mre11, 500 ng Rad50 or 1 ug Xrs2 added for 1 h in 50 mM Tris-HCl pH 7.5, 200 mM NaCl, 0.2% NP40, 2 mM EDTA; eluted with 20 mM maltose; Western blot; settings: both partners purified

binding result [1]	binding result [2]	Binder
binds	binds	MBP-Rif2 (S. cerevisiae Rif2, wild type) (natural protein, UniProt Q06208 1-395, looked up, Rif2, Saccharomyces cerevisiae, full length, expressed from the vector pFB-MBP-Rif2-his; MBP was cleaved with PreScission protease only after elution from the resin; N-terminal place of MBP is read from the construct's name MBP-Rif2-his; also called ScRif2; not shown: MBP, N-terminal, kept) MEHVDSDFAPIRRSKKVVDSDKIVKAISDDLEQKNFTVLRKLNLVPIKKSVSSPKVCKPSPVKERVDHVFYQKFKSMALQELGTNYLSISYVPSLSKFLSKNLRSMKNCIVFFDKVEHIHQYAGIDRAVSETLSLVDINVVIIEMNDYLMKEGIQSSKSKECIESMGQASYSGQLDFEASEKPSNHTSDLMMMVMRKINNDESIDHIVYFKFEQLDKLSTSTIIEPSKLTEFINVLSVLEKSNNIAFKVLIYSNNVSISSLLSTSLKKKLNTKYTVFEMPILTCAQEQEYLKKMIKFTFDSGSKLLQSYNSLVTCQLNNKESNLAIFFEFLKVFPHPFTYLFNAYTEIIVQSRTFDELLDKIRNRLTIKNYPHSAYNFKKNQRLPLKLTRKVHDR
binds	binds	MBP-Rif2-min (S. cerevisiae Rif2 F8E P10N) (natural protein, UniProt Q06208 1-395, looked up, Rif2, Saccharomyces cerevisiae, full length, F8E P10N, expressed from the vector pFB-MBP-Rif2-min-his; MBP was cleaved with PreScission protease only after elution from the resin; N-terminal place of MBP is read from the construct's name; also called mutant Rif2; not shown: MBP, N-terminal, kept) MEHVDSDEANIRRSKKVVDSDKIVKAISDDLEQKNFTVLRKLNLVPIKKSVSSPKVCKPSPVKERVDHVFYQKFKSMALQELGTNYLSISYVPSLSKFLSKNLRSMKNCIVFFDKVEHIHQYAGIDRAVSETLSLVDINVVIIEMNDYLMKEGIQSSKSKECIESMGQASYSGQLDFEASEKPSNHTSDLMMMVMRKINNDESIDHIVYFKFEQLDKLSTSTIIEPSKLTEFINVLSVLEKSNNIAFKVLIYSNNVSISSLLSTSLKKKLNTKYTVFEMPILTCAQEQEYLKKMIKFTFDSGSKLLQSYNSLVTCQLNNKESNLAIFFEFLKVFPHPFTYLFNAYTEIIVQSRTFDELLDKIRNRLTIKNYPHSAYNFKKNQRLPLKLTRKVHDR
